# Measurements from the supplement of paper PMC7125110.
# ± gives the standard error. For some of these results: Fewer inactive variants are shown than the library holds.
# B1: glmS ribozyme (parent)
# chain: AUAAAAGCGCCAGAACUACAGAAAUGUAGUUGACGAGGAGGAGGUUUAUCGAAUUUUCGGCGGAUGCCUCCAAA
# Tests used:
# Details in all cases: with glucosamine-6-phosphate
# [1] = variants of: B1; assay: kcat; higher = faster cleavage; RNA array
# Method in brief: (§1)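 Ribozyme variants carrying barcodes were transcribed in situ on sequenced MiSeq chips by E. coli RNA polymerase and tracked at 37 °C with a hybridised Cy3 probe. They were exposed to 40 μM to 10 mM glucosamine-6-phosphate in HEPES/KCl/Mg(OAc)2 buffer. kobs came from exponential decay fits of normalised per-tile medians, and kcat and KM from weighted Michaelis–Menten fits.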
# [2] = variants of: B1; assay: self-cleavage kobs at 40 uM GlcN6P; higher = faster cleavage; RNA array
# Method in brief: as §1
# [3] = variants of: B1; assay: self-cleavage kobs at 2500 uM GlcN6P; higher = faster cleavage; RNA array
# Method in brief: as §1
# [4] = variants of: B1; assay: KM; higher = weaker cofactor use; RNA array
# Method in brief: as §1
# [5] = variants of: B1; assay: self-cleavage kobs at 160 uM GlcN6P; higher = faster cleavage; RNA array
# Method in brief: as §1
# [6] = variants of: B1; assay: self-cleavage kobs at 640 uM GlcN6P; higher = faster cleavage; RNA array
# Method in brief: as §1
# [7] = variants of: B1; assay: self-cleavage kobs at 10000 uM GlcN6P; higher = faster cleavage; RNA array
# Method in brief: as §1
Variant,kcat [1],self-cleavage kobs at 40 uM GlcN6P [2],self-cleavage kobs at 2500 uM GlcN6P [3],KM [4],self-cleavage kobs at 160 uM GlcN6P [5],self-cleavage kobs at 640 uM GlcN6P [6],self-cleavage kobs at 10000 uM GlcN6P [7]
C16U G60A,1.69e-05 ± 4.6e-06 s⁻¹,< 1e-05 s⁻¹,2.66e-05 ± 1.3e-05 s⁻¹,–,–,–,–
G29A A39U A42U,0.000919 ± 0.00015 s⁻¹,–,0.000488 ± 0.00012 s⁻¹,3000 ± 790 µM,4.77e-05 ± 2e-05 s⁻¹,0.000148 ± 3.3e-05 s⁻¹,0.000685 ± 0.00014 s⁻¹
A15G G43U,4.47e-05 ± 6.5e-06 s⁻¹,–,4.65e-05 ± 9.7e-06 s⁻¹,–,< 1e-05 s⁻¹,–,4e-05 ± 5.6e-06 s⁻¹
A15G G43A,8.91e-05 ± 1.1e-05 s⁻¹,< 1e-05 s⁻¹,4.89e-05 ± 1.5e-05 s⁻¹,2300 ± 940 µM,–,–,7.17e-05 ± 1.4e-05 s⁻¹
A15U U56G,0.00786 ± 0.0027 s⁻¹,0.000149 ± 2.5e-05 s⁻¹,0.00363 ± 0.00053 s⁻¹,3290 ± 1500 µM,0.000265 ± 5e-05 s⁻¹,0.00143 ± 0.00018 s⁻¹,0.00565 ± 0.00088 s⁻¹
C16A U31C,0.000468 ± 0.00021 s⁻¹,–,0.000139 ± 2.8e-05 s⁻¹,–,–,6.72e-05 ± 1.1e-05 s⁻¹,0.000418 ± 0.00011 s⁻¹
C16A U31G,0.000292 ± 2.2e-05 s⁻¹,–,0.000177 ± 5e-05 s⁻¹,1280 ± 200 µM,4.15e-05 ± 1.7e-05 s⁻¹,9.42e-05 ± 1.8e-05 s⁻¹,0.000267 ± 4.3e-05 s⁻¹
A15U A36G U69C C70A,1.84e-05 ± 4.3e-06 s⁻¹,–,–,–,–,–,–
C16A G51A,< 1e-05 s⁻¹,–,–,632 ± 220 µM,–,–,< 1e-05 s⁻¹
C16U G66C C67U,3.45e-05 ± 4.4e-06 s⁻¹,–,–,–,–,–,–
A15U G32A,0.00116 ± 0.00015 s⁻¹,–,0.000388 ± 9.4e-05 s⁻¹,4440 ± 850 µM,–,0.000153 ± 2.9e-05 s⁻¹,0.00082 ± 0.00016 s⁻¹
C16G U47A,0.00274 ± 0.00078 s⁻¹,6.21e-05 ± 9.9e-06 s⁻¹,0.00124 ± 0.0002 s⁻¹,1710 ± 700 µM,0.00027 ± 3.9e-05 s⁻¹,0.000755 ± 0.00013 s⁻¹,0.00329 ± 0.00047 s⁻¹
C16G U47G,0.000729 ± 0.00014 s⁻¹,–,0.000604 ± 0.0001 s⁻¹,1210 ± 400 µM,7.03e-05 ± 1.6e-05 s⁻¹,0.000307 ± 4.8e-05 s⁻¹,0.000565 ± 0.0001 s⁻¹
A15U C50A,1.29e-05 ± 3.8e-06 s⁻¹,–,–,–,–,–,–
A15G U47C,0.0057 ± 0.00076 s⁻¹,0.000151 ± 3.2e-05 s⁻¹,0.00388 ± 0.00099 s⁻¹,1660 ± 350 µM,0.000348 ± 0.00016 s⁻¹,0.00164 ± 0.0005 s⁻¹,0.00476 ± 0.00083 s⁻¹
A15U G40A,0.000675 ± 9.5e-05 s⁻¹,4.43e-05 ± 1.2e-05 s⁻¹,0.000515 ± 0.0001 s⁻¹,912 ± 230 µM,8.75e-05 ± 1.8e-05 s⁻¹,0.000282 ± 4.7e-05 s⁻¹,0.000611 ± 0.0001 s⁻¹
A15U G40C,0.000282 ± 2.6e-05 s⁻¹,–,0.000162 ± 3.3e-05 s⁻¹,1070 ± 230 µM,3.7e-05 ± 1.5e-05 s⁻¹,0.00011 ± 1.4e-05 s⁻¹,0.000269 ± 3e-05 s⁻¹

Variant,kcat [1],self-cleavage kobs at 40 uM GlcN6P [2],self-cleavage kobs at 2500 uM GlcN6P [3],KM [4],self-cleavage kobs at 160 uM GlcN6P [5],self-cleavage kobs at 640 uM GlcN6P [6],self-cleavage kobs at 10000 uM GlcN6P [7]
A15U U49G,9.5e-05 ± 7.9e-06 s⁻¹,–,5.99e-05 ± 8e-06 s⁻¹,1730 ± 470 µM,–,2.05e-05 ± 9.2e-06 s⁻¹,7.95e-05 ± 8.2e-06 s⁻¹
C16A G63C,< 1e-05 s⁻¹,–,–,–,< 1e-05 s⁻¹,–,–
C16U A36U,< 1e-05 s⁻¹,–,–,–,–,–,–
C16G G40C,0.0003 ± 2.6e-05 s⁻¹,–,0.000212 ± 5.8e-05 s⁻¹,1660 ± 360 µM,–,8.17e-05 ± 2e-05 s⁻¹,0.000252 ± 3.6e-05 s⁻¹
A15U G59U,< 1e-05 s⁻¹,< 1e-05 s⁻¹,–,–,< 1e-05 s⁻¹,–,–
C16U U46A,0.00336 ± 0.00057 s⁻¹,5.67e-05 ± 1.4e-05 s⁻¹,0.00176 ± 0.00024 s⁻¹,2760 ± 760 µM,0.00012 ± 5.1e-05 s⁻¹,0.000641 ± 0.00012 s⁻¹,0.00249 ± 0.00038 s⁻¹
C19A,0.0165 ± 0.0045 s⁻¹,0.00101 ± 8.1e-05 s⁻¹,0.011 ± 0.0021 s⁻¹,610 ± 220 µM,0.00456 ± 0.00078 s⁻¹,0.00758 ± 0.00099 s⁻¹,0.0275 ± 0.0046 s⁻¹
C16A A52G,0.000129 ± 7.4e-06 s⁻¹,–,0.000102 ± 1.9e-05 s⁻¹,730 ± 180 µM,–,6.18e-05 ± 2.3e-05 s⁻¹,0.000118 ± 1.9e-05 s⁻¹
C16U A39U,0.0586 ± 0.022 s⁻¹,–,0.0111 ± 0.0017 s⁻¹,9390 ± 4200 µM,0.00114 ± 0.00038 s⁻¹,0.00392 ± 0.00055 s⁻¹,0.034 ± 0.0081 s⁻¹
C16G U46C,0.000353 ± 5e-05 s⁻¹,–,0.000169 ± 3.5e-05 s⁻¹,2310 ± 630 µM,–,8.24e-05 ± 2.7e-05 s⁻¹,0.00032 ± 9e-05 s⁻¹
C16U A53G,0.0256 ± 0.012 s⁻¹,0.00111 ± 0.00015 s⁻¹,0.013 ± 0.0042 s⁻¹,–,0.00153 ± 0.00061 s⁻¹,0.0112 ± 0.0028 s⁻¹,0.0282 ± 0.0061 s⁻¹
A15U G29C,0.00199 ± 0.00051 s⁻¹,4.56e-05 ± 9.9e-06 s⁻¹,0.000809 ± 0.00016 s⁻¹,2340 ± 910 µM,0.000116 ± 3.3e-05 s⁻¹,0.000432 ± 7.6e-05 s⁻¹,0.00191 ± 0.0003 s⁻¹
C16U C61G C67A,2.72e-05 ± 6.4e-06 s⁻¹,–,–,–,–,–,–
C16U A33U,0.000109 ± 1.2e-05 s⁻¹,–,5.09e-05 ± 6.2e-06 s⁻¹,2420 ± 740 µM,–,3.18e-05 ± 8.4e-06 s⁻¹,8.92e-05 ± 7.1e-06 s⁻¹
A15G G59U,0.000115 ± 2.5e-05 s⁻¹,–,4.46e-05 ± 1.4e-05 s⁻¹,–,–,2.79e-05 ± 1.3e-05 s⁻¹,9.05e-05 ± 1.6e-05 s⁻¹
A15G G37U,1.02e-05 ± 7.1e-07 s⁻¹,< 1e-05 s⁻¹,–,623 ± 300 µM,–,–,–
